The target of assay [1] is T1, Rel-49, the C-terminal IkB domain of Relish, N-terminal StrepTagII and C-terminal His tag (Drosophila melanogaster).
T1 sequence (Q94527 whole entry, looked up): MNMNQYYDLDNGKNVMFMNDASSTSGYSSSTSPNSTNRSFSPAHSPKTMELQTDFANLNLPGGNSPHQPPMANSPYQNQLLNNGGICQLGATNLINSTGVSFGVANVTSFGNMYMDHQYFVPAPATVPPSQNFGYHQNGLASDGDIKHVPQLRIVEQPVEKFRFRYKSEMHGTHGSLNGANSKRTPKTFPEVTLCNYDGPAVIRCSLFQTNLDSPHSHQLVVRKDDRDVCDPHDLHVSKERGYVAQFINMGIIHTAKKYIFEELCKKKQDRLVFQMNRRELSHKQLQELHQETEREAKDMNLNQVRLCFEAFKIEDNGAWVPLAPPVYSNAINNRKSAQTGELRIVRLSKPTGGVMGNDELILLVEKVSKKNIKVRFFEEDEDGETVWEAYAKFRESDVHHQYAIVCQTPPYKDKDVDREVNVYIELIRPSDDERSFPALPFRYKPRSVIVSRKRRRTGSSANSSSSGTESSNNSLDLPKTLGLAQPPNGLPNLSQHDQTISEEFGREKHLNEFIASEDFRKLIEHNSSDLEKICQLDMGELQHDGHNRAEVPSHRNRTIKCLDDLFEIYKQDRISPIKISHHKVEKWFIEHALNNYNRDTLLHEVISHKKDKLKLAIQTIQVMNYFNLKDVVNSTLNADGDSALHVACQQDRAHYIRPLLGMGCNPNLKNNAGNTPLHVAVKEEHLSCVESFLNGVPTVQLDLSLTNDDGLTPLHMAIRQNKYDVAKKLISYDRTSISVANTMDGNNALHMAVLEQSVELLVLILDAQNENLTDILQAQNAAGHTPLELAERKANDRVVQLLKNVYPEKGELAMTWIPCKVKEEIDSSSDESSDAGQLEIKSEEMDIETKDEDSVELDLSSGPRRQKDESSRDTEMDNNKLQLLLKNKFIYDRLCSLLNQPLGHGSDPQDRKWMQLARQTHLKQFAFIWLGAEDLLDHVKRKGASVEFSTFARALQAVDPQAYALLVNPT
The assay can be described thus: SPR; Biacore 3000, room temperature; IkB or Ank immobilised on CM5 by amine coupling (about 5500 RU); Rel homodimer as analyte, kinetic titration, five doubling injections (typically 160 nM to 2.56 uM), 60 or 90 s, 30 uL/min; 10 mM HEPES pH 7.4, 150 mM NaCl, 3.4 mM EDTA, 0.005% P20; 1:1 Langmuir …. On the technique in general: SPR reads the build-up and loss of mass on a sensor chip optically.

In assay [2] the target is T2, Ank-H4 of Microplitis demolitor bracovirus, full length, N-terminal His tag (Microplitis demolitor bracovirus (MdBV)). Described as above.
T2 sequence (Q5I144 whole entry): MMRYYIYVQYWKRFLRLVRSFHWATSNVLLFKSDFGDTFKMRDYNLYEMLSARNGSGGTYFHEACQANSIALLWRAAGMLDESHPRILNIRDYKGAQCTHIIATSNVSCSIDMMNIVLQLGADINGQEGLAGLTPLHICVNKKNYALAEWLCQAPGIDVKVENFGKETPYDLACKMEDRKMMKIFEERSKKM
For assay [3], the target named is Ank-N5 of Microplitis demolitor bracovirus, full length, N-terminal His tag (Microplitis demolitor bracovirus (MdBV)). Described as above.
Sequence of Ank-N5 of Microplitis demolitor bracovirus, full length, N-terminal His tag (Microplitis demolitor bracovirus (MdBV)) (Q5I126 whole entry, the tested form may be a part): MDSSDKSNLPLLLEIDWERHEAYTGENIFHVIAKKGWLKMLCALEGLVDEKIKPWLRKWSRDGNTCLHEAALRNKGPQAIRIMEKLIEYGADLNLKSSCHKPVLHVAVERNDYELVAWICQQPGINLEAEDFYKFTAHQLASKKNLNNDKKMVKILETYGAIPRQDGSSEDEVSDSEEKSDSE
For assay [4], the target named is Relish, truncated (RHD, NLS and 20 additional C-terminal residues), StrepTagII-tagged (Drosophila melanogaster). The assay can be described thus: SEC; gel filtration of each purified recombinant protein, compared with molecular mass standards. In general terms: Size exclusion chromatography separates by hydrodynamic size, large species first.
The target of assay [5] is Relish, truncated (RHD, NLS and 20 additional C-terminal residues), N-terminal thioredoxin fusion (Drosophila melanogaster). The assay is described as above.
In assay [6] the target is Dorsal, truncated (RHD, NLS and 20 additional C-terminal residues), StrepTagII-tagged (Drosophila melanogaster). The assay is described as above.
Assay [7] deals with T2, Ank-H4 of Microplitis demolitor …. The assay can be described thus: SPR; Biacore 3000, room temperature; IkB or Ank immobilised on CM5 by amine coupling (about 5500 RU); Rel homodimer as analyte, kinetic titration, five doubling injections (typically 160 nM to 2.56 uM), 60 or 90 s, 30 uL/min; 10 mM HEPES pH 7.4, 150 mM NaCl, 3.4 mM EDTA, 0.005% P20; 1:1 Langmuir …. This is another data set of the same source.

The target of assay [8] is Dorsal, truncated (RHD, NLS and 20 additional C-terminal residues), N-terminal thioredoxin fusion (Drosophila melanogaster). The experiment in a line: SEC; gel filtration of each purified recombinant protein, compared with molecular mass standards.

Broadly, the Kd is the constant that tells how readily two partners part at equilibrium. Read a low Kd as a tighter complex. A word on the koff: it is a measure of how fast the partners let go of each other. The low end stands for a long-lived complex, the high end for a short-lived complex. Usually kon stands for a measure of how fast the partners come together. A high value points to fast association. Broadly, the stoichiometry N is a count of units in the complex or per binding partner.

Where two headings read alike, the source gives them in different places.

B1: Relish, truncated (RHD, NLS and 20 additional C-terminal residues), StrepTagII-tagged (domain or fragment)
chain: KHVPQLRIVEQPVEKFRFRYKSEMHGTHGSLNGANSKRTPKTFPEVTLCNYDGPAVIRCSLFQTNLDSPHSHQLVVRKDDRDVCDPHDLHVSKERGYVAQFINMGIIHTAKKYIFEELCKKKQDRLVFQMNRRELSHKQLQELHQETEREAKDMNLNQVRLCFEAFKIEDNGAWVPLAPPVYSNAINNRKSAQTGELRIVRLSKPTGGVMGNDELILLVEKVSKKNIKVRFFEEDEDGETVWEAYAKFRESDVHHQYAIVCQTPPYKDKDVDREVNVYIELIRPSDDERSFPALPFRYKPRSVIVSRKRRRTGSSANSSSSGTESSNNSLD
modifications: not checked
In assay [1], B1 yielded a Kd of 2750 nM, a koff of 0.00378 s⁻¹ and a kon of 1380 M⁻¹ s⁻¹. In assay [2], this molecule came in with a Kd of 345 nM, a koff of 0.0067 s⁻¹ and an on-rate (kon) of 19400 M⁻¹ s⁻¹. Besides, in assay [3], the Kd came to 30300 nM, the koff was determined as 0.00179 s⁻¹ and the kon worked out at 59 M⁻¹ s⁻¹. The stoichiometry N in assay [4] was determined as 2.

B2: Relish, truncated (RHD, NLS and 20 additional C-terminal residues), N-terminal thioredoxin fusion (domain or fragment)
chain: KHVPQLRIVEQPVEKFRFRYKSEMHGTHGSLNGANSKRTPKTFPEVTLCNYDGPAVIRCSLFQTNLDSPHSHQLVVRKDDRDVCDPHDLHVSKERGYVAQFINMGIIHTAKKYIFEELCKKKQDRLVFQMNRRELSHKQLQELHQETEREAKDMNLNQVRLCFEAFKIEDNGAWVPLAPPVYSNAINNRKSAQTGELRIVRLSKPTGGVMGNDELILLVEKVSKKNIKVRFFEEDEDGETVWEAYAKFRESDVHHQYAIVCQTPPYKDKDVDREVNVYIELIRPSDDERSFPALPFRYKPRSVIVSRKRRRTGSSANSSSSGTESSNNSLD
modifications: not checked
As for B2, the stoichiometry N in assay [5] worked out at 2.

B3: Dorsal, truncated (RHD, NLS and 20 additional C-terminal residues), StrepTagII-tagged (domain or fragment)
chain: PYVKITEQPAGKALRFRYECEGRSAGSIPGVNSTPENKTYPTIEIVGYKGRAVVVVSCVTKDTPYRPHPHNLVGKEGCKKGVCTLEINSETMRAVFSNLGIQCVKKKDIEAALKAREEIRVDPFKTGFSHRFQPSSIDLNSVRLCFQVFMESEQKGRFTSPLPPVVSEPIFDKKAMSDLVICRLCSCSATVFGNTQIILLCEKVAKEDISVRFFEEKNGQSVWEAFGDFQHTDVHKQTAITFKTPRYHTLDITEPAKVFIQLRRPSDGVTSEALPFEYVPMDSDPAHLRRKRQKTGGDPMHLLLQQQQKQQLQN
modifications: not checked
With B3, the Kd in assay [1] was 783 nM; in assay [2] it was 858 nM; in assay [3], 416 nM; in assay [7], 858000 nM. Moreover, the koff in assay [1] is 0.00645 s⁻¹; in assay [2], 0.0067 s⁻¹; in assay [3], 0.003 s⁻¹. Besides, the on-rate (kon) in assay [1] turned out to be 8240 M⁻¹ s⁻¹; in assay [2], 7810 M⁻¹ s⁻¹; in assay [3], 7230 M⁻¹ s⁻¹. The stoichiometry N in assay [6] was found to be 2.

B4: Dorsal, truncated (RHD, NLS and 20 additional C-terminal residues), N-terminal thioredoxin fusion (domain or fragment)
chain: PYVKITEQPAGKALRFRYECEGRSAGSIPGVNSTPENKTYPTIEIVGYKGRAVVVVSCVTKDTPYRPHPHNLVGKEGCKKGVCTLEINSETMRAVFSNLGIQCVKKKDIEAALKAREEIRVDPFKTGFSHRFQPSSIDLNSVRLCFQVFMESEQKGRFTSPLPPVVSEPIFDKKAMSDLVICRLCSCSATVFGNTQIILLCEKVAKEDISVRFFEEKNGQSVWEAFGDFQHTDVHKQTAITFKTPRYHTLDITEPAKVFIQLRRPSDGVTSEALPFEYVPMDSDPAHLRRKRQKTGGDPMHLLLQQQQKQQLQN
modifications: not checked
B4: the stoichiometry N in assay [8] came out at 2.

Source of the values: PMC3359993.
